In publication doi:10.1101/2022.06.07.494932:

Tests used:
[1] = target: α-Synuclein A53T, unlabelled (human) (UniProt P37840); experiment: ELISA
[2] = target: α-Synuclein WT, unlabelled (human) (UniProt P37840); experiment: ELISA

α-Synuclein A53T, unlabelled (from UniProt P37840 1-140) (natural protein)
intracellular α-Syn oligomer concentration after 3 days [1]: 16.3 nM

α-Synuclein WT, unlabelled (from UniProt P37840 1-140) (natural protein)
intracellular α-Syn oligomer concentration after 1 day [2]: 12.3 nM
intracellular α-Syn oligomer concentration after 3 days [2]: 13.1 nM
